# *1 amine or outer side, *2 acyl side, *3 side chain or, on linkers, in order; H or OH if unused. Side-chain parts run from the residue outwards. The star is where a group is joined. C18 diacid = O=C(O)CCCCCCCCCCCCCCCCC(=O)*; γGlu = O=C(O)[C@H](CCC(=O)[*:2])N[*:1]; Isovaleryl = CC(C)CC(=O)*; Ahx = NCCCCCC(=O)O
# T1: human NPY2 receptor (human, UniProt P49146 1-381)
# T1 construct: whole, on cells; also called hNPY2-R; hNPY2R
# T1 sequence (looked up): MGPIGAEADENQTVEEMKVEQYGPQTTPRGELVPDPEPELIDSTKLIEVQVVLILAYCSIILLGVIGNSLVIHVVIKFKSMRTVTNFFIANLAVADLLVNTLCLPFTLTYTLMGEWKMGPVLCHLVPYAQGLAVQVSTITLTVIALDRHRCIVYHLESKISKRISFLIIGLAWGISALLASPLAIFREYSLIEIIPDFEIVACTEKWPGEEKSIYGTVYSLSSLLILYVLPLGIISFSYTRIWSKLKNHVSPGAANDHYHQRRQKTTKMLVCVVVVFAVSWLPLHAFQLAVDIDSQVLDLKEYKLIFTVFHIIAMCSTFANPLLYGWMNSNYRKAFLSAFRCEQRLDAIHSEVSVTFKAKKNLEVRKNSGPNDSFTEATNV
# Molecular target: T1, human NPY2 receptor
# Experiment: RLB: displacement of 125I-PYY(1-36) from hNPY2R membranes
row,Binder,Ki
1,Isovaleryl-APEK([Ahx-γGlu-C18 diacid])PEEAATPEEIQRYYVALRHYYNWLTRQRY-NH2 (SMILES CC[C@H](C)[C@H](NC(=O)[C@H](CCC(=O)O)NC(=O)[C@H](CCC(=O)O)NC(=O)[C@@H]1CCCN1C(=O)[C@@H](NC(=O)[C@H](C)NC(=O)[C@H](C)NC(=O)[C@H](CCC(=O)O)NC(=O)[C@H](CCC(=O)O)NC(=O)[C@@H]1CCCN1C(=O)[C@H](CCCCNC(=O)CCCCCNC(=O)CC[C@H](NC(=O)CCCCCCCCCCCCCCCCC(=O)O)C(=O)O)NC(=O)[C@H](CCC(=O)O)NC(=O)[C@@H]1CCCN1C(=O)[C@H](C)NC(=O)CC(C)C)[C@@H](C)O)C(=O)N[C@@H](CCC(N)=O)C(=O)N[C@@H](CCCNC(=N)N)C(=O)N[C@@H](Cc1ccc(O)cc1)C(=O)N[C@@H](Cc1ccc(O)cc1)C(=O)N[C@H](C(=O)N[C@@H](C)C(=O)N[C@@H](CC(C)C)C(=O)N[C@@H](CCCNC(=N)N)C(=O)N[C@@H](Cc1c[nH]cn1)C(=O)N[C@@H](Cc1ccc(O)cc1)C(=O)N[C@@H](Cc1ccc(O)cc1)C(=O)N[C@@H](CC(N)=O)C(=O)N[C@@H](Cc1c[nH]c2ccccc12)C(=O)N[C@@H](CC(C)C)C(=O)N[C@H](C(=O)N[C@@H](CCCNC(=N)N)C(=O)N[C@@H](CCC(N)=O)C(=O)N[C@@H](CCCNC(=N)N)C(=O)N[C@@H](Cc1ccc(O)cc1)C(N)=O)[C@@H](C)O)C(C)C) [Compound 154],3.71 nM
2,Isovaleryl-APEK([Ahx-γGlu-C18 diacid])PEEDATPEELQRYYVSLRHYYNWLSRQRY-NH2 (SMILES CC(C)CC(=O)N[C@@H](C)C(=O)N1CCC[C@H]1C(=O)N[C@@H](CCC(=O)O)C(=O)N[C@@H](CCCCNC(=O)CCCCCNC(=O)CC[C@H](NC(=O)CCCCCCCCCCCCCCCCC(=O)O)C(=O)O)C(=O)N1CCC[C@H]1C(=O)N[C@@H](CCC(=O)O)C(=O)N[C@@H](CCC(=O)O)C(=O)N[C@@H](CC(=O)O)C(=O)N[C@@H](C)C(=O)N[C@H](C(=O)N1CCC[C@H]1C(=O)N[C@@H](CCC(=O)O)C(=O)N[C@@H](CCC(=O)O)C(=O)N[C@@H](CC(C)C)C(=O)N[C@@H](CCC(N)=O)C(=O)N[C@@H](CCCNC(=N)N)C(=O)N[C@@H](Cc1ccc(O)cc1)C(=O)N[C@@H](Cc1ccc(O)cc1)C(=O)N[C@H](C(=O)N[C@@H](CO)C(=O)N[C@@H](CC(C)C)C(=O)N[C@@H](CCCNC(=N)N)C(=O)N[C@@H](Cc1c[nH]cn1)C(=O)N[C@@H](Cc1ccc(O)cc1)C(=O)N[C@@H](Cc1ccc(O)cc1)C(=O)N[C@@H](CC(N)=O)C(=O)N[C@@H](Cc1c[nH]c2ccccc12)C(=O)N[C@@H](CC(C)C)C(=O)N[C@@H](CO)C(=O)N[C@@H](CCCNC(=N)N)C(=O)N[C@@H](CCC(N)=O)C(=O)N[C@@H](CCCNC(=N)N)C(=O)N[C@@H](Cc1ccc(O)cc1)C(N)=O)C(C)C)[C@@H](C)O) [Compound 155],7.6 nM

# Results, then the binder that gave them:
row,Ki,Binder
1,1.68 nM,Isovaleryl-APAK([Ahx-γGlu-C18 diacid])PEEAASPEELQRYYVALRHYYNWLTRQRY-NH2 (SMILES CC(C)CC(=O)N[C@@H](C)C(=O)N1CCC[C@H]1C(=O)N[C@@H](C)C(=O)N[C@@H](CCCCNC(=O)CCCCCNC(=O)CC[C@H](NC(=O)CCCCCCCCCCCCCCCCC(=O)O)C(=O)O)C(=O)N1CCC[C@H]1C(=O)N[C@@H](CCC(=O)O)C(=O)N[C@@H](CCC(=O)O)C(=O)N[C@@H](C)C(=O)N[C@@H](C)C(=O)N[C@@H](CO)C(=O)N1CCC[C@H]1C(=O)N[C@@H](CCC(=O)O)C(=O)N[C@@H](CCC(=O)O)C(=O)N[C@@H](CC(C)C)C(=O)N[C@@H](CCC(N)=O)C(=O)N[C@@H](CCCNC(=N)N)C(=O)N[C@@H](Cc1ccc(O)cc1)C(=O)N[C@@H](Cc1ccc(O)cc1)C(=O)N[C@H](C(=O)N[C@@H](C)C(=O)N[C@@H](CC(C)C)C(=O)N[C@@H](CCCNC(=N)N)C(=O)N[C@@H](Cc1c[nH]cn1)C(=O)N[C@@H](Cc1ccc(O)cc1)C(=O)N[C@@H](Cc1ccc(O)cc1)C(=O)N[C@@H](CC(N)=O)C(=O)N[C@@H](Cc1c[nH]c2ccccc12)C(=O)N[C@@H](CC(C)C)C(=O)N[C@H](C(=O)N[C@@H](CCCNC(=N)N)C(=O)N[C@@H](CCC(N)=O)C(=O)N[C@@H](CCCNC(=N)N)C(=O)N[C@@H](Cc1ccc(O)cc1)C(N)=O)[C@@H](C)O)C(C)C) [Compound 157]
2,0.58 nM,Isovaleryl-APEK([Ahx-γGlu-C18 diacid])PPEAASPEEIQRYYVALRHYYNWLTRQRY-NH2 (SMILES CC[C@H](C)[C@H](NC(=O)[C@H](CCC(=O)O)NC(=O)[C@H](CCC(=O)O)NC(=O)[C@@H]1CCCN1C(=O)[C@H](CO)NC(=O)[C@H](C)NC(=O)[C@H](C)NC(=O)[C@H](CCC(=O)O)NC(=O)[C@@H]1CCCN1C(=O)[C@@H]1CCCN1C(=O)[C@H](CCCCNC(=O)CCCCCNC(=O)CC[C@H](NC(=O)CCCCCCCCCCCCCCCCC(=O)O)C(=O)O)NC(=O)[C@H](CCC(=O)O)NC(=O)[C@@H]1CCCN1C(=O)[C@H](C)NC(=O)CC(C)C)C(=O)N[C@@H](CCC(N)=O)C(=O)N[C@@H](CCCNC(=N)N)C(=O)N[C@@H](Cc1ccc(O)cc1)C(=O)N[C@@H](Cc1ccc(O)cc1)C(=O)N[C@H](C(=O)N[C@@H](C)C(=O)N[C@@H](CC(C)C)C(=O)N[C@@H](CCCNC(=N)N)C(=O)N[C@@H](Cc1c[nH]cn1)C(=O)N[C@@H](Cc1ccc(O)cc1)C(=O)N[C@@H](Cc1ccc(O)cc1)C(=O)N[C@@H](CC(N)=O)C(=O)N[C@@H](Cc1c[nH]c2ccccc12)C(=O)N[C@@H](CC(C)C)C(=O)N[C@H](C(=O)N[C@@H](CCCNC(=N)N)C(=O)N[C@@H](CCC(N)=O)C(=O)N[C@@H](CCCNC(=N)N)C(=O)N[C@@H](Cc1ccc(O)cc1)C(N)=O)[C@@H](C)O)C(C)C) [Compound 158]
3,4.2 nM,Isovaleryl-APEK([Ahx-γGlu-C18 diacid])PEEAAEPEEIQRYYVALRHYYNWLTRQRY-NH2 (SMILES CC[C@H](C)[C@H](NC(=O)[C@H](CCC(=O)O)NC(=O)[C@H](CCC(=O)O)NC(=O)[C@@H]1CCCN1C(=O)[C@H](CCC(=O)O)NC(=O)[C@H](C)NC(=O)[C@H](C)NC(=O)[C@H](CCC(=O)O)NC(=O)[C@H](CCC(=O)O)NC(=O)[C@@H]1CCCN1C(=O)[C@H](CCCCNC(=O)CCCCCNC(=O)CC[C@H](NC(=O)CCCCCCCCCCCCCCCCC(=O)O)C(=O)O)NC(=O)[C@H](CCC(=O)O)NC(=O)[C@@H]1CCCN1C(=O)[C@H](C)NC(=O)CC(C)C)C(=O)N[C@@H](CCC(N)=O)C(=O)N[C@@H](CCCNC(=N)N)C(=O)N[C@@H](Cc1ccc(O)cc1)C(=O)N[C@@H](Cc1ccc(O)cc1)C(=O)N[C@H](C(=O)N[C@@H](C)C(=O)N[C@@H](CC(C)C)C(=O)N[C@@H](CCCNC(=N)N)C(=O)N[C@@H](Cc1c[nH]cn1)C(=O)N[C@@H](Cc1ccc(O)cc1)C(=O)N[C@@H](Cc1ccc(O)cc1)C(=O)N[C@@H](CC(N)=O)C(=O)N[C@@H](Cc1c[nH]c2ccccc12)C(=O)N[C@@H](CC(C)C)C(=O)N[C@H](C(=O)N[C@@H](CCCNC(=N)N)C(=O)N[C@@H](CCC(N)=O)C(=O)N[C@@H](CCCNC(=N)N)C(=O)N[C@@H](Cc1ccc(O)cc1)C(N)=O)[C@@H](C)O)C(C)C) [Compound 156]

# From patent US20260015399A1 (Boehringer Ingelheim, published 2026)
